Entries after “also recorded” stand apart in the source; their conditions may differ.
Legend:
Assay type in all cases: biochemical, Hepatitis C virus (HCV)
[1] = system: NS3 protease (pBJ1022, NS3 catalytic domain); test: Enhancement by 4A peptides of NS3 cleavage in the in vitro translation assay; conditions: no NS3 protease present
Protocol: (§1) The plasmid pTS102 encoding the substrate 5A/5B was linearized by digestion with EcoR I and was transcribed using T7 RNA polymerase in vitro. The RNA was translated in presence of ^35 S methionine in rabbit reticulocyte lysates according to the manufacturer's (Promega protocol to produce HCV specific protein. In a 20 μl total reaction mixture containing 10 mM Tris, pH 7.5, 1 mM DTT, 0.5 mM EDTA, and 10% glycerol was placed 2 to 8 μl of ^35 S methionine-labeled translated 5A/5B substrate. The reaction was started with the addition of 10 μl of HCV NS3 protease in solubilization buffer (50 mM Na Phosphate, pH 7.8, 0.3M NaCl, 0.2% Tween 20, 10 mM DTT or BME, 10% glycerol), and incubated at 30° C. for the specified time. Reactions were stopped by adding an equal volume of 2X Laemmli sample buffer (Enprotech Inc.) and heating at 100° C. for 3 minutes. Reaction products were separated by SDS PAGE electrophoresis; gels were fixed, dried and subjected to autoradiography.
(§2) NS4A is able to enhance the NS3 serine protease activity at NS5A/5B site in mammalian cells that transiently coexpress NS3, NS4A, and the various HCV non-structural polyprotein containing downstream cleavage sites. We have studied this enhancement activity in a well defined cell-free biochemical assay, using the partially purified E. coli-expressed pBJ1022 as a source of NS3 protease, and synthetic peptides containing various truncations of NS4A. In our first experiment we used a crude cell lysate of pBJ1022 as the enzyme and NS4A synthetic peptide truncated 33 mer from amino acid 22 to amino acid 54, the carboxy-terminal in vitro translation cleavage reaction.
(§3) To further characterize NS4A enhancement activity additional truncations were made to the NS4A sequence. Truncated peptides were evaluated for their activity in the in vitro translation assay using Ni^2+ chelate column-purified pBJ1022 (NS3 catalytic domain).

[2] = molecular target: T1, NS3 protease (pBJ1022, NS3 catalytic domain) (Hepatitis C virus genotype 1a, UniProt P27958); test: as above
T1 construct: made in house; host or cells: E. coli M15 [pREP4]
Protocol: as §1, §2, §3

[3] = system: in vitro-translated 5A/5B substrate; test: Analysis of refolded NS3 protease activity by in vitro translation assay; conditions: in the presence of 4A peptide (33 mer, 2 μM), 30° C., about one hour
Text: (§4) To detect HCV NS3 protease activity in trans, we have expressed a 40 kD protein containing the NS5A/5B cleavage site in cell-free translation system and used that as the substrate for the enzyme. The substrate protein produces two protein products of apparent molecular weight 12.5 kD (NS 5A') and 27 kD (NS5B') upon cleavage by the HCV NS3 protease.
as §1, with “(Promega)” for “(Promega”, “protease (SEQ ID NO: 5) with an approximately equimolar amount (2 μM) of the carboxyterminal 33 mer cofactor NS4A (SEQ ID NO: 29)” for “protease”, “about one hour.” for “the specified time.”, “Reaction products were separated by SDS PAGE electrophoresis; gels were fixed, dried and subjected to autoradiography.” left out

[4] = system: in vitro translated 5A/5B substrate (40 kD protein containing the NS5A/5B cleavage site); test: Analysis of NS3 protease activity by in vitro translation assay
Text: as §4, §1

T1 sequence (P27958 1028-1209): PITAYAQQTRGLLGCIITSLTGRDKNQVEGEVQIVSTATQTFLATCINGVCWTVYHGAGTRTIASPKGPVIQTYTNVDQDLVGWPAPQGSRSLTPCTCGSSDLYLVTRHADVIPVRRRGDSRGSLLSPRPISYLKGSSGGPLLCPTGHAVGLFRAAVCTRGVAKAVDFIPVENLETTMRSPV

For “C-terminal 33 amino acid peptide of NS4A: NS4A synthetic peptide truncated 33 mer from amino acid 22 to amino acid 54 (strain HCV-BK) (CVVIVGRIVLSGKPAIIPDREVLYQEFDEMEEC)”, the “cleavage of the substrate by the 4A peptide itself or with vector lysate” value [1] was “did not cleave the substrate”, the “enhancement of NS3 mediated cleavage activity” value ([2]; Ni2+ chelate column-purified pBJ1022 (NS3 catalytic domain)) was “able to enhance the NS3 mediated cleavage activity” and the “enhancement of NS3 catalytic domain activity at the 5A/5B site” value ([2]; crude cell lysate of pBJ1022 as enzyme, 0.01 μM to 1.0 μM peptide, 30 minutes) was “able to enhance the activity of the NS3 catalytic domain in a dose dependent manner”.

B1: HisHIV183: histidine-tagged HCV NS3 protease without solubilizing motif, refolded from E. coli inclusion bodies (protein)
chain: MRGSHHHHHHGSHKARVLAEAMSHGTMAPITAYAQQTRGLLGCIITSLTGRDKNQVEGEVQIVSTATQTFLATCINGVCWTVYHGAGTRTIASPKGPVIQMYTNVDQDLVGWPAPQGSRSLTPCTCGSSDLYLVTRHADVIPVRRRGDSRGSLLSPRPISYLKGSSGGPLLCPAGHAVGLFRAAVCTRGVTKAVDFIPVENLETTMRSPV
In the case of B1, the “trans-cleavage activity of the refolded protease on 5A/5B substrate” value [3] is reported as “active; also recorded: able to cleave 5A/5B substrate in a dose responsive manner”.

B2: pBJ1022: E. coli-expressed His-tagged NS3 protease catalytic domain with hydrophilic tail, named by its plasmid (protein)
chain: MRGSHHHHHHTDPPITAYAQQTRGLLGCIITSLTGRDKNQVEGEVQIVSTATQTFLATCINGVCWTVYHGAGTRTIASPKGPVIQMYTNVDQDLVGWPAPQGSRSLTPCTCGSSDLYLVTRHADVIPVRRRGDSRGSLLSPRPISYLKGSSGGPLLCPAGHAVGLFRAAVCTRGVTKAVDFIPVENLETTMRSPVRKKKRR
With B2 the “HCV protease activity of imidazole-eluted fractions” value ([4]; POROS Ni2+ chelate purification, NS4A amino acids 22 to 54 peptide added at 1 μM) was “active”, the “cleavage activity by the protease alone, without the 4A peptide” value ([4]; crude cell lysate, incubation time of 30 minutes) was “relatively low cleavage activity” and the “cleavage of 5A/5B substrate by crude soluble lysate” value ([4]; two hour assay at 30° C., lysate at 3, 6 and 10 μl, SDS PAGE) was “able to cleave 5A/5B substrate in a dose responsive manner”.

B3: pNB182Δ4A: E. coli-expressed fusion of NS3 catalytic domain (182aa)-G-NS4A(4-54) with hydrophilic tail, named by its plasmid (protein)
chain: MRGSHHHHHHTDPPITAYAQQTRGLLGCIITSLTGRDKNQVEGEVQIVSTATQTFLATCINGVCWTVYHGAGTRTIASPKGPVIQMYTNVDQDLVGWPAPQGSRSLTPCTCGSSDLYLVTRHADVIPVRRRGDSRGSLLSPRPISYLKGSSGGPLLCPAGHAVGLFRAAVCTRGVTKAVDFIPVENLETTMRSPGVLVGGVLAALAAYCLSTGCVVIVGRIVLSGKPAIIPDREVLYQEFDEMEECRKKKRRKLN
B3 was tested, and the “time at which 5A and 5B cleavage products began to appear” value ([4]; 30° C., soluble lysate at 1 μl per 20 μl reaction volume) was 1 min, the “amount of lysate at which cleavage reached a maximum” value ([4]; 30 minutes incubation) was 1 µL and the “least amount of cell lysate at which 5A and 5B cleavage products were detected” value ([4]; 30 minutes incubation) was 0.125 µL. For the same molecule, the “activity of crude soluble lysate compared with pBJ1022 lysate” value ([4]; crude soluble lysate, 30 minutes incubation) was “much more active” and the “cleavage of translated 5A/5B substrate by imidazole-eluted fractions” value ([4]; fractions from Ni-NTA column purification) was “all able to cleave the translated 5A/5B Substrate”.
